In data set [1] the target is T1, LRP1 (Mus musculus, UniProt Q91ZX7).
T1 construct: endogenous in cells; host or cells: bEnd3 (ATCC CRL-2299)
The experiment in a line: LRP1 expression in BECs treated with Aβ assemblies (Western blot). Format: cell-based. The following applies: 100 nM for 2 h, normalised to GAPDH and untreated cells, n = 3. As to the method: Polarized bEnd3 were washed twice with PBS and RIPA buffer containing protease inhibitors (1:50) was added directly to the transwell membranes and left on ice for 1 h. Cells were collected, centrifuged and the supernatant was collected for Western blot analysis. WT, KO and APP-PS1 mice were anaesthetized, decapitated and the brains were carefully collected from the skull. Brains were homogenized in a 4-fold excess volume of ice-cold buffer solution: 10 mM HEPES, 141 mM NaCl, 4 mM KCl, 2.8 mM CaCl2, 1 mM MgSO4, 1 mM NaH2PO4 and 10 mM glucose (pH 7.4) in a glass homogenizer (10–15 strokes). Microvessels and capillary-depleted fractions were prepared from WT, KO and APP-PS1 mice brains, as previously described.[28] Homogenate was suspended in an equal volume of 26% (w/v) dextran (64–76 kDa), mixed and centrifuged at 15 800 g for 10 min at 4°C. Pellet containing the brain microvessels was carefully separated from the supernatant containing capillary-depleted brain (parenchyma). Both fractions, microvessels and parenchyma, were washed twice in ice-cold buffered solution by centrifugation at 15 800 g for 10 min. Brain microvessels and parenchyma fractions were resuspended in RIPA lysis buffer containing protease inhibitors, centrifuged for 20 min, and the supernatant used for Western blot analysis. Protein levels in the lysates were determined using a BCA Protein Assay Kit. Lysates were mixed with Laemmli sample buffer, and proteins (25 µg) were separated on 10% SDS polyacrylamide gels and transferred to polyvinylidene difluoride (PVDF) membranes. All membranes were blocked with 5% (w/v) non-fat milk in Tris-buffered saline (TBS) containing 0.1% (w/v) Tween-20 (TBS-T) for 1 h and then incubated at 4°C with the primary antibody overnight. After washing with TBS-T three times for 5 min, membranes were incubated with the corresponding secondary antibody for 1 h at room temperature, washed with TBS-T and imaged using an Odyssey CLx (LI-COR Biosciences). […]
Cell metabolic activity of BECs was assessed by using the RealTime-Glo™ MT Cell Viability Assay. […]

Data set [2] addresses T2, LRP1/Rab5 (Mus musculus, UniProt Q91ZX7).
T2 construct: endogenous in cells; host or cells: bEnd3 (ATCC CRL-2299)
The experiment in a line: Proximity ligation assay LRP1/Rab5 in BECs treated with Aβ assemblies. Format: cell-based. The following applies: Aβ assemblies at 100 nM for 15 min (Fig. 6B2). The procedure: (§1) Polarized bEnd3 were washed twice with PBS, fixed in 4% (w/v) PFA in PBS for 15 min and permeabilized with 0.1% (w/v) Triton X-100 in PBS for 10 min. PLA was carried out by using Duolink probes and detection reagents according to the supplier’s instructions. Briefly, monolayers were incubated with Duolink blocking solution for 1 h at 37°C and then incubated with the two antibodies targeting each protein of interest overnight at 4°C. Subsequently, cells were incubated with Duolink PLA probes (anti-rabbit and anti-mouse) for 1 h at 37°C, washed and incubated with Duolink ligase and polymerase enzymes for 30 and 100 min, respectively. As a negative control, PLA protocol was followed with the exception of the addition of the primary antibodies to determine the specificity of the PLA probes. Nuclei were counterstained by incubation with DAPI for 10 min. Membranes were mounted in glass coverslips using Vectashield Mounting Media. Images were acquired using a Leica TCS SP8 confocal microscope, via sequential scan to reduce fluorophore bleed-through, with a 63× oil immersion objective. z-stacks (10–20 stacks per sample) were collected (20 optical sections) and fluorescence intensity of the PLA signal was quantified using ImageJ. The abundance of PLA signal was normalized by the number of nuclei in each z-stack image. List of antibodies in Supplementary material.
Cell metabolic activity of BECs was assessed by using the RealTime-Glo™ MT Cell Viability Assay. Cells were seeded in 96-well plates at a density of 10 000 cells per well and incubated with Aβ assemblies at concentrations ranging 0.001–1 µM for 1 and 24 h. RealTime-Glo™ MT Assay was carried out according to the supplier’s instructions. […] To evaluate the effect of Aβ assemblies in the expression of LRP1, cells were treated for 2 h with Aβ at 10 µM and then, cells were collected and analysed by Western blotting, as described above.

A short description of data set [3]: Transmission electron microscopy of Aβ assemblies. Format: physicochemical. The following applies: negative staining, ∼0.5 mg ml^−1 dispersion. The procedure: Peptide films were then resuspended in dimethyl sulfoxide (DMSO) to 5 mM, bath sonicated for 10 min and vortexed for 30 s. […] Immediately before use, the oligomeric solutions were centrifuged at 14 000 g for 10 min at 4°C (to remove any fibrils that might be present), and the supernatant was diluted to the final experimental concentration. […] TEM imaging was performed using a JOEL JEM-2200FS microscope equipped with a field emission gun at 200 kV, and an in-column Omega filter. TEM microscope was used in energy-filtered mode with the slit inserted to increase image contrast by collecting only elastically scattered electrons. Digital Micrograph™ software (version 3.20) was used for image acquisition and processing. […] For sample preparation, 400 mesh copper grids were glow-discharged for 40 s to render them hydrophilic. […] The grid was blotted with filter paper and immersed in Uranyless staining solution for 40 s for negative staining. The grid was blotted again and dried under vacuum for 1 min.

A short description of data set [4]: Thioflavin T (ThT) fluorescence assay of Aβ assemblies. Format: physicochemical. The following applies: Aβ preparation 10 µM in PBS with ThT 50 µM, 37°C, 450/485 nm; n = 3. As to the method:
Aβ assemblies were prepared according to previously described protocols.[48],[49] Briefly, Aβ (1–40) peptide was dissolved in hexafluoro-2-propanol at 1 mM, vortexed and bath sonicated to obtain a homogenous solution, and aliquoted to microcentrifuge tubes. HIPF was removed by overnight evaporation and, once all solvent was removed, Aβ (1–40) films were stored at −80°C until further processed. Peptide films were then resuspended in dimethyl sulfoxide (DMSO) to 5 mM, bath sonicated for 10 min and vortexed for 30 s. […] Immediately before use, the oligomeric solutions were centrifuged at 14 000 g for 10 min at 4°C (to remove any fibrils that might be present), and the supernatant was diluted to the final experimental concentration. […] Monomeric Aβ was obtained by dissolving the peptide directly in DMSO at 1 mM. […] Aβ assemblies were characterized by measuring ThT fluorescence and transmission electron microscopy (TEM). […] Briefly, each Aβ preparation (20 µl, 10 µM) was incubated with ThT solution (80 µl, 50 µM) at 37°C and then the fluorescence of ThT was measured at 450/485 nm in a 96-well plate using a Spark Multimode microplate reader (Tecan). […] Images were recorded using a direct detection camera K2 IS from Gatan working in counted mode to allow for the sensitive Aβ structures to be imaged at low electron doses without beam damage. […]

In data set [5] the target is T3, LRP1/syndapin-2 (Mus musculus, UniProt Q91ZX7).
T3 construct: endogenous in cells; host or cells: bEnd3 (ATCC CRL-2299), polarized
T3 sequence (Q91ZX7 20-3944 limits assumed): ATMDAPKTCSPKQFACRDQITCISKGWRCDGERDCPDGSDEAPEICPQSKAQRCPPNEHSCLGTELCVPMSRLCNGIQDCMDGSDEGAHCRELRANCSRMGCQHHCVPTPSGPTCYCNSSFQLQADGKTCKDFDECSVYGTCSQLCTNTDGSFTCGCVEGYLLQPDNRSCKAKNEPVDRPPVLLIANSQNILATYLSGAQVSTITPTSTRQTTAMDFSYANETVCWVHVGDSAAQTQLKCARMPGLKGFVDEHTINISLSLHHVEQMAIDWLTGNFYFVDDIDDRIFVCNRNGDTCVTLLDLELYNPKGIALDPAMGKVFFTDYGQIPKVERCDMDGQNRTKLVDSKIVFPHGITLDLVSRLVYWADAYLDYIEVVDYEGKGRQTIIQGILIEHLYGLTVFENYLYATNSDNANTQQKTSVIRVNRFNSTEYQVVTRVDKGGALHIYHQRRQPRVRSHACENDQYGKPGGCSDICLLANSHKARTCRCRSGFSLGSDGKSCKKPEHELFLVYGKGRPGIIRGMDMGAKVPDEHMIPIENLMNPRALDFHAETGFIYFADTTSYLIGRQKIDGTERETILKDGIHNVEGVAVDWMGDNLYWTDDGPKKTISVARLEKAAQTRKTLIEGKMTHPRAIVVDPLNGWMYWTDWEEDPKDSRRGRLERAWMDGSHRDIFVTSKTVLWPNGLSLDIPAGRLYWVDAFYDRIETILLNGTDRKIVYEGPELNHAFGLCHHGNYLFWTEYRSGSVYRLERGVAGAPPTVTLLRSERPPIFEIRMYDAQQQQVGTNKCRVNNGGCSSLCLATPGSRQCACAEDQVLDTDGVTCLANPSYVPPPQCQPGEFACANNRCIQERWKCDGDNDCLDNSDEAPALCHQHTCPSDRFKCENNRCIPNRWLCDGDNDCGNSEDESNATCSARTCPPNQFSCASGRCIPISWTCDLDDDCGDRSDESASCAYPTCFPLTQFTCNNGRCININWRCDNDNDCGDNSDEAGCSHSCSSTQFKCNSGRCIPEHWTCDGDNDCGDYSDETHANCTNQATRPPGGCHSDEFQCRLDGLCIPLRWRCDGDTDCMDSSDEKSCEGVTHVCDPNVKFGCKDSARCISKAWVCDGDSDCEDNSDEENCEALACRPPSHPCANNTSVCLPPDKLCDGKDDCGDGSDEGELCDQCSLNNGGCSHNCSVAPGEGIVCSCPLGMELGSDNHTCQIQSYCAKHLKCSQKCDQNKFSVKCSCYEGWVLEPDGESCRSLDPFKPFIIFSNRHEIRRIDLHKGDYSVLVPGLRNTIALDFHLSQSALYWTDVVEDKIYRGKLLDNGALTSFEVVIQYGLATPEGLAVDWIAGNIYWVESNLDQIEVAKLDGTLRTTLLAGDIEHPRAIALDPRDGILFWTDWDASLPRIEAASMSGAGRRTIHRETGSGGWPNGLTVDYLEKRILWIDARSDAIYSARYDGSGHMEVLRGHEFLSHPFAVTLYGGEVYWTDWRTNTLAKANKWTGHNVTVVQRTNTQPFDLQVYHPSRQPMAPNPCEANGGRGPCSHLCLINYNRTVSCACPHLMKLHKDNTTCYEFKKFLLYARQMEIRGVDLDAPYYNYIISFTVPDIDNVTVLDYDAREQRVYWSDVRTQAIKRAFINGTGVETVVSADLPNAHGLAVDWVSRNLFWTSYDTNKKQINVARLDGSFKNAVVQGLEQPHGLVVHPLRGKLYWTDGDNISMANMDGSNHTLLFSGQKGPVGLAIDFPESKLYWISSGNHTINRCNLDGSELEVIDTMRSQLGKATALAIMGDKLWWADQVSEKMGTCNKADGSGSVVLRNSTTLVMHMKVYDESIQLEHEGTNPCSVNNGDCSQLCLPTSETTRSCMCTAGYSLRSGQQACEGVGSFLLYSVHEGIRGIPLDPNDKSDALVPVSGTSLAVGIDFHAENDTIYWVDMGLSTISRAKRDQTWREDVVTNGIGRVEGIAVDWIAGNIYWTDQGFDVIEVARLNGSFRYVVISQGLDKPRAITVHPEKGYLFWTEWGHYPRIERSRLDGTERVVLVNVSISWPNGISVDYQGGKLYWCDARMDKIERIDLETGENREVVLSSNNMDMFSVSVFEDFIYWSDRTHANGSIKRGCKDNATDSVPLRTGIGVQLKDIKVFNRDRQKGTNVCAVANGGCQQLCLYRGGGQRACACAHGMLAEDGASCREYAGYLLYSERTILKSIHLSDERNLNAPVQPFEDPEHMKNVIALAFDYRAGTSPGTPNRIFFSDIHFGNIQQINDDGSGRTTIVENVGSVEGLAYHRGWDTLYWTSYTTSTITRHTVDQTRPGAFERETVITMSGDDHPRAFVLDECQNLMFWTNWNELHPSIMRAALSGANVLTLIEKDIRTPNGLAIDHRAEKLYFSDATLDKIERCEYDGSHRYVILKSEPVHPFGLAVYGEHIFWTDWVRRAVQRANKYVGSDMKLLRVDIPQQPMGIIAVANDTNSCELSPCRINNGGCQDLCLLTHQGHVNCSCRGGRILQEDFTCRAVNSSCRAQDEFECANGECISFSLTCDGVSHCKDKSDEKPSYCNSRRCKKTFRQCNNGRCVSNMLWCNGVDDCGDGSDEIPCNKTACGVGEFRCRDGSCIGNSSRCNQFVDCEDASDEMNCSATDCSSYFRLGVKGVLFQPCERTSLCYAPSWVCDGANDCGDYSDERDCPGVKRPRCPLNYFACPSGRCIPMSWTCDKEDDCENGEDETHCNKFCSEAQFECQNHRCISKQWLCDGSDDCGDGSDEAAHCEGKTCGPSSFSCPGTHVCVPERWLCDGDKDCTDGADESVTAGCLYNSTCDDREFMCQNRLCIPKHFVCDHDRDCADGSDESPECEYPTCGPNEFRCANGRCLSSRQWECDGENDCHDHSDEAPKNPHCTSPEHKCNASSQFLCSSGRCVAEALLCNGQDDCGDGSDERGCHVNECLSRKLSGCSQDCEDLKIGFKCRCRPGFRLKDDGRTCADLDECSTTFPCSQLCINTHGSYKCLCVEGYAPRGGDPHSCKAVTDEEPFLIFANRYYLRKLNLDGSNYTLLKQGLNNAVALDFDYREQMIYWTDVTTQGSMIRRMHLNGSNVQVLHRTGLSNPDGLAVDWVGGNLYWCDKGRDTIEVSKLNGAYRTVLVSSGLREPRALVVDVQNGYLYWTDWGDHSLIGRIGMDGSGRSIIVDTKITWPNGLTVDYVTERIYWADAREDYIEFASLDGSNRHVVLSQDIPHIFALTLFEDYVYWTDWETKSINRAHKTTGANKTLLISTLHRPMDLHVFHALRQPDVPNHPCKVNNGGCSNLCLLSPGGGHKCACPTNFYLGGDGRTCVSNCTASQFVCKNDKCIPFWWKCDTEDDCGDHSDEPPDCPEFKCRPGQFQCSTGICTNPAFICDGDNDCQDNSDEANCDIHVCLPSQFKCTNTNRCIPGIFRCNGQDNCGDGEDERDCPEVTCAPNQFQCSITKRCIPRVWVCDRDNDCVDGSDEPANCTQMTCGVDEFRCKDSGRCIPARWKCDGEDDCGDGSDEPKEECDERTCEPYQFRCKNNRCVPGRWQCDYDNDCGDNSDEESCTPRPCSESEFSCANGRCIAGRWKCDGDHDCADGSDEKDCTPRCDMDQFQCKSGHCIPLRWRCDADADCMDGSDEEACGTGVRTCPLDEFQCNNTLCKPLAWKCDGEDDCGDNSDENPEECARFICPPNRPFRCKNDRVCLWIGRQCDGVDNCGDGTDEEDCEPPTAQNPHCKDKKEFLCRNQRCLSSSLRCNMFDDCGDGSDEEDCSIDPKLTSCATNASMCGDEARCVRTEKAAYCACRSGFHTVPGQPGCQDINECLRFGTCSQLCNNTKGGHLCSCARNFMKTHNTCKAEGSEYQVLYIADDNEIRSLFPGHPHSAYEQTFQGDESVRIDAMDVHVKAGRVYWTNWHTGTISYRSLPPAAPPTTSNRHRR
T3 sequence (Q91ZX7 3945-4545 partner limits assumed): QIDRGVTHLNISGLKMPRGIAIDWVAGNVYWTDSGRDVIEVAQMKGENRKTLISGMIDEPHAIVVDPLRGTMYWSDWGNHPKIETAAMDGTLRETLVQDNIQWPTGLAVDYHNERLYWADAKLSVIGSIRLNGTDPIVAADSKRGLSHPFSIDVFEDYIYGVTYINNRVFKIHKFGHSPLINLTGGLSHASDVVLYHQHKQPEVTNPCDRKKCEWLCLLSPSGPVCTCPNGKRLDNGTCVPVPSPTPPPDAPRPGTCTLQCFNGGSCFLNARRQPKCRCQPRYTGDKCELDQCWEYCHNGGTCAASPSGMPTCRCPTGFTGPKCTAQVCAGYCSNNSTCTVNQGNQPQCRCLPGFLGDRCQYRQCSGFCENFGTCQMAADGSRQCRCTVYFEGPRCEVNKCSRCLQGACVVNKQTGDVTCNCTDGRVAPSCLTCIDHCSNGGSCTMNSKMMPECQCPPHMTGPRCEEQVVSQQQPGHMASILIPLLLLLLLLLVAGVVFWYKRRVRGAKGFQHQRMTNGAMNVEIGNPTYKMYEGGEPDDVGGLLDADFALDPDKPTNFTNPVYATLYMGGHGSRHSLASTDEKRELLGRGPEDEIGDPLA
The experiment in a line: Proximity ligation assay LRP1/syndapin-2 in BECs treated with Aβ. The following applies: Aβ assemblies at 100 nM for 15 min (Fig. 6B1). Format: cell-based.

For data set [6], the system named is syndapin-2. The experiment in a line: Proximity ligation assay Aβ/syndapin-2 in BECs treated with Aβ assemblies. Format: cell-based, mouse. The following applies: Aβ assemblies at 100 nM for 15 min (Fig. 6C1). The procedure: as §1, with “Nuclei were counterstained by incubation with DAPI for 10 min. Membranes were mounted in glass coverslips using Vectashield Mounting Media.” left out, “The abundance of PLA signal was normalized by the number of nuclei in each z-stack image. List of antibodies in Supplementary material.” left out
Cell metabolic activity of BECs was assessed by using the RealTime-Glo™ MT Cell Viability Assay. […] To evaluate the effect of Aβ assemblies in the expression of LRP1, cells were treated for 2 h with Aβ at 10 µM and then, cells were collected and analysed by Western blotting, as described above.

T2 sequence (Q91ZX7 20-3944 limits assumed): as the sequence (Q91ZX7 20-3944 limits assumed) above
T2 sequence (Q91ZX7 3945-4545 limits assumed): as the sequence (Q91ZX7 3945-4545 partner limits assumed) above

Turning to “Aβ fibrils: Aβ (1–40) fibrils prepared in cold 10 mM HCl, incubated at 37°C for 24 h”, the “Reduction in the expression levels of LRP1” value in data set [1] is reported as 2 fold. Further, the “LRP1/Rab5 association (PLA)” value in data set [2] is on record as “favour LRP1/Rab5 association”. In addition, the “Thickness of fibrils (TEM)” value in data set [3] is roughly 10 nm. The “ThT fluorescence intensity (fibril structure)” value in data set [4] is reported as “characteristic increase in the fluorescence intensity of ThT”.

“Aβ oligomers: Aβ (1–40) oligomers formed in PBS at 4°C for 24 h, supernatant after centrifugation”: the LRP1 expression result in data set [1] is “unaltered”. In data set [2], the “LRP1/Rab5 association (PLA)” value is “decrease”. Also, the “LRP1/syndapin-2 interaction (PLA), comparison among assemblies” value in data set [5] was “highest increase”. Further, the “Association of Aβ with syndapin-2 (PLA)” value in data set [6] is “more associated with syndapin-2”.

For “Aβ monomers: Monomeric Aβ obtained by dissolving the Aβ (1–40) peptide directly in DMSO at 1 mM”, in data set [1], the LRP1 expression entry was “unaltered”. Moreover, the “LRP1/Rab5 association (PLA)” value in data set [2] is reported as “favour LRP1/Rab5 association”. In data set [3], the “Morphology (TEM)” value was “small assemblies and agglomerates”.

(Values after article PMC8882007, “Syndapin-2 mediated transcytosis of amyloid-β across the blood–brain barrier” (Brain Communications, 2022).)
